Data reported in patent publication US7250164.

Molecular target: HmenB3 monoclonal antibody against Neisseria meningitidis serogroup B capsular polysaccharide
Experiment: cell-based or functional assay

B1: Naid60 anti-idiotypic monoclonal antibody (Ab2) to HmenB3 (antibody, IgG1, V domains shown)
VH: EVKLVESGGGLVQPGGSLKLSCATSGFLFTDYYMFWVRQTPEKRLEWVAYISNGGGDTYYPDTVKGRFTISRDNAKNALYLQMSRLKSEDTAMYYCARHKGYYGYYYALDYWGQGT
VL: DIQLTQSPATLSVTPGDSVSLSCRASQSISNNLHWYQQKSHESPRLLIKYASQSISGIPSRFSGSGSGTDFTLSINSVETEDFGMYFCQQSNNWPLTFGAGTK
**Q.** How did the bacterial cell death rate (complement-mediated bactericidal activity of HmenB3 against NMGB) at 4 mg/L Naid60 turn out when B1 was run?
**A.** 57.7%

**Q.** What about the bacterial cell death rate (complement-mediated bactericidal activity of HmenB3 against NMGB) at 40 mg/L Naid60 of the same binder?
**A.** 0%
